Test results: IntAct's records for PubMed 18354501

Legend:
t2ea_human GTF2E1 [1] = target: t2ea_human GTF2E1 (UniProt P29083)
t2ea_human GTF2E1 [2] = target: t2ea_human GTF2E1 (UniProt P29083); remark: listed apart in the source
t2ea_human GTF2E1 [3] = target: t2ea_human GTF2E1 (UniProt P29083); remark: listed apart in the source
t2ea_human GTF2E1 [4] = target: t2ea_human GTF2E1 (UniProt P29083); remark: listed apart in the source
t2ea_human GTF2E1 [5] = target: t2ea_human GTF2E1 (UniProt P29083); remark: listed apart in the source
t2ea_human GTF2E1 [6] = target: t2ea_human GTF2E1 (UniProt P29083); remark: listed apart in the source

Chain of t2ea_human GTF2E1 (P29083 whole entry): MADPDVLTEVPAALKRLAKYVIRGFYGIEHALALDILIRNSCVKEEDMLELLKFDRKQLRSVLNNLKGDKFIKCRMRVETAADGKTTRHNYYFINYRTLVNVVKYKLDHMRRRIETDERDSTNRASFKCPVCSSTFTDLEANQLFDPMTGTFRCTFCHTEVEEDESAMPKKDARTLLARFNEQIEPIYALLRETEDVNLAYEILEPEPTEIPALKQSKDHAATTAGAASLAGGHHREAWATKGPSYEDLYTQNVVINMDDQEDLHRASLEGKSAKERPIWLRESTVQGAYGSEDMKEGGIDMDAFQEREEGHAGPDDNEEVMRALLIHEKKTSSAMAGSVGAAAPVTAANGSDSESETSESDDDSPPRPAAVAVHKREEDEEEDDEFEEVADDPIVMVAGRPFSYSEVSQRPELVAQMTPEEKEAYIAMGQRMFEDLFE
Chain of General transcription factor IIH subunit 1 (Homo sapiens), P32780 Q66A (P32780 whole entry Q66A): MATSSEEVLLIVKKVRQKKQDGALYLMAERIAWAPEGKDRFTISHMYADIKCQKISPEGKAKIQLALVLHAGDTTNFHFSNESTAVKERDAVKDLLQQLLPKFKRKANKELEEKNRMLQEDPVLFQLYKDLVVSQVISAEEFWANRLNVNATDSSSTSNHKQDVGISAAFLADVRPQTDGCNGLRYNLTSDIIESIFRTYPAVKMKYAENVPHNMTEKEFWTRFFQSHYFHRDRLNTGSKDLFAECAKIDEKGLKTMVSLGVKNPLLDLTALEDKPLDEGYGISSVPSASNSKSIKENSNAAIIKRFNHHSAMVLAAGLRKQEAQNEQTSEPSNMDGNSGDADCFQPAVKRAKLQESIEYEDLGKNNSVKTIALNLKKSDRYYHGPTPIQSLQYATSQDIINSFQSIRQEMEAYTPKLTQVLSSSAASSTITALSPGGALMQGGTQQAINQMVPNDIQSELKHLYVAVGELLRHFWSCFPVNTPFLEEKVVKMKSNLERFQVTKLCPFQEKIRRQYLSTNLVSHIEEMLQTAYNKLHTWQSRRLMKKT
Chain of General transcription factor IIH subunit 1 (Homo sapiens), P32780 V68A (P32780 whole entry V68A): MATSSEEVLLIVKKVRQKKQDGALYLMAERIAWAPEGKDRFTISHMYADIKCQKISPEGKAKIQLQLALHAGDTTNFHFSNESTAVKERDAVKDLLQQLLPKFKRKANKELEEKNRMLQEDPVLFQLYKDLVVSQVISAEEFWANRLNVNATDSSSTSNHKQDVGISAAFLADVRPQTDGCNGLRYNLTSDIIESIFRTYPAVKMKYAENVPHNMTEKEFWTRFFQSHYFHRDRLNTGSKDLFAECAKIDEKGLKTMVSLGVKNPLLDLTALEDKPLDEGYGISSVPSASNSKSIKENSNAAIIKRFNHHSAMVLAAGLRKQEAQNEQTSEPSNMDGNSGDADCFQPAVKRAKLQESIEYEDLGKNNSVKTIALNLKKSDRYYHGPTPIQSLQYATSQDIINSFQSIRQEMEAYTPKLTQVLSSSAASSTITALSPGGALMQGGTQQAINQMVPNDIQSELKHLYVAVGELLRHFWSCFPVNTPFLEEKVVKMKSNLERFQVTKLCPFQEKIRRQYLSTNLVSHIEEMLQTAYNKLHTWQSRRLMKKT
Chain of General transcription factor IIH subunit 1 (Homo sapiens), P32780 K19A (P32780 whole entry K19A): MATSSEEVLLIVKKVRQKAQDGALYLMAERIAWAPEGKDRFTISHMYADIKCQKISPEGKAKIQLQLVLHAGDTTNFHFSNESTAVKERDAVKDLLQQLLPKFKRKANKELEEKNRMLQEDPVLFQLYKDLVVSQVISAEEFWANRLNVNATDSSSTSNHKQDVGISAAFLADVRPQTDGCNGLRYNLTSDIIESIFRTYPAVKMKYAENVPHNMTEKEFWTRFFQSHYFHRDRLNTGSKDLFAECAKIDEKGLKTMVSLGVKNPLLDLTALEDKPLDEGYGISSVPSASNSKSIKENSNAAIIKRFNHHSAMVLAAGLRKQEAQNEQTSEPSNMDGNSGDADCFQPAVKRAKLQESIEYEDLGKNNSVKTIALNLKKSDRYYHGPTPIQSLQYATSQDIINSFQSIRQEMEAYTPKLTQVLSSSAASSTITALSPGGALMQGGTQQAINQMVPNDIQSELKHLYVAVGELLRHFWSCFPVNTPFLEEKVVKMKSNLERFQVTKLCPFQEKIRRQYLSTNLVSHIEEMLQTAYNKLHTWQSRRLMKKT
Chain of General transcription factor IIH subunit 1 (Homo sapiens), P32780 K18A (P32780 whole entry K18A): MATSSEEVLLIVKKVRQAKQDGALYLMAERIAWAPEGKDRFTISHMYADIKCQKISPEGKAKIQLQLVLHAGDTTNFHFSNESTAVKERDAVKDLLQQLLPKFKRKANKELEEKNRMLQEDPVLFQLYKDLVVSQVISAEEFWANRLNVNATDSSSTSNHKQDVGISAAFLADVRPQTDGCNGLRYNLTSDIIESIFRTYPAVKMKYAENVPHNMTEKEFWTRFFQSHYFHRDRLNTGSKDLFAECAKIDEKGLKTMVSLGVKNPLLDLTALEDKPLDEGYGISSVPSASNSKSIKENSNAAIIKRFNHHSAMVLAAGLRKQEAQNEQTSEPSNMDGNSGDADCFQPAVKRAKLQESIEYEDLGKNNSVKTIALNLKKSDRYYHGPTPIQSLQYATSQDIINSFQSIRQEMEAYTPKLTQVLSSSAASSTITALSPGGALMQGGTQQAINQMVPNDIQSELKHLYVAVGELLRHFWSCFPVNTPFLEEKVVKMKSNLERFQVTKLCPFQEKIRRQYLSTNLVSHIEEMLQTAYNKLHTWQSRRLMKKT
Chain of General transcription factor IIH subunit 1 (Homo sapiens), P32780 K54A (P32780 whole entry K54A): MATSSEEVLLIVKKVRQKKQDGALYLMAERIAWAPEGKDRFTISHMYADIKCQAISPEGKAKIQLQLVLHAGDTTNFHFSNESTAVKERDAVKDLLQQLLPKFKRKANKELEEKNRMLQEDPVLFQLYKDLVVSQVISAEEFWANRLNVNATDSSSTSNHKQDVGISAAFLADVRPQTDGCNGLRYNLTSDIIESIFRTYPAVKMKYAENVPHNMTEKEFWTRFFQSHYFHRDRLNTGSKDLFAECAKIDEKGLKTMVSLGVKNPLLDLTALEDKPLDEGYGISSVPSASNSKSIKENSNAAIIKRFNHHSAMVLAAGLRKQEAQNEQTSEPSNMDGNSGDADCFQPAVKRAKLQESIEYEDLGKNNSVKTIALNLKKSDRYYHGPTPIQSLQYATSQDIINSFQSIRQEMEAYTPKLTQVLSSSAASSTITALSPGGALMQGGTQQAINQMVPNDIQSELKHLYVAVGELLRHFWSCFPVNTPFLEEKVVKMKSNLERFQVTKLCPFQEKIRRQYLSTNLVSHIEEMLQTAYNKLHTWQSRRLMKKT

Substance: General transcription factor IIH subunit 1 (Homo sapiens), P32780 K18A
- effect of a mutation on the interaction (t2ea_human GTF2E1 [1]): decreasing interaction

Substance: General transcription factor IIH subunit 1 (Homo sapiens), P32780 K19A
- effect of a mutation on the interaction (t2ea_human GTF2E1 [2]): disrupting interaction

Substance: General transcription factor IIH subunit 1 (Homo sapiens), P32780 K54A
- effect of a mutation on the interaction (t2ea_human GTF2E1 [3]): disrupting interaction

Substance: General transcription factor IIH subunit 1 (Homo sapiens), P32780 Q66A
- effect of a mutation on the interaction (t2ea_human GTF2E1 [4]): decreasing interaction
- effect of a mutation on the interaction (t2ea_human GTF2E1 [5]): disrupting interaction

Substance: General transcription factor IIH subunit 1 (Homo sapiens), P32780 V68A
- effect of a mutation on the interaction (t2ea_human GTF2E1 [6]): decreasing interaction
